Laboratory results reported in patent US20140271467A1 (Stanford University, published 2014).
Where a chain is given by its changes, count along the chain named. Each block holds one binder with its values, some of them ahead of it.

How the values were obtained:
[1] = target: T1, biotinylated human CD20 extracellular loop peptide (amino acids 165-185) (human, biotin at the C-terminus (printed as SEQ ID NO: 1-biotin)); experiment: selection from the G4 library against the CD20 peptide
T1 construct: Chemically synthesized; also called CD20 peptide; biotin-CD20 peptide
T1 peptide: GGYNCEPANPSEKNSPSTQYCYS
Description: The human CD20 peptide extracellular loop was synthesized (amino acids: 165-185; […] (SEQ ID NO: 1)-biotin) and purified by RP-HPLC on a C-18 column and lyophilized as per the published procedure (29). This peptide was characterized by ESI-MS and immobilized on streptavidin magnetic beads for screening of FN3 binders. […] Briefly, yeast displaying 2.5×10⁸ FN3 mutants were sorted for binding to magnetic beads with immobilized CD20 peptide, followed by fluorescence-activated cell sorting for full-length proteins using the C-terminal c-myc epitope. Plasmid DNA from selected clones was recovered, mutated by error-prone PCR of either the entire FN3 gene or the paratope loops, and reintroduced into yeast by electroporation with homologous recombination. As binder enrichment progressed in later evolutionary cycles, fluorescence-activated cell sorting for binding to soluble CD20 peptide was also used. Six cycles of selection and mutation were performed. Plasmid DNA was recovered, transformed into bacteria, and individual clones were sequenced by standard DNA sequencing methods.

[2] = target: T1, biotinylated human CD20 extracellular …; experiment: affinity titration with yeast surface display and flow cytometry, biotinylated CD20
[3] = target: T2, human CD20 antigen on live Ramos cells (human, UniProt P11836 1-297); experiment: flow cytometry on live Ramos cells, 1:1 fit; flow cytometry, live Ramos cells (cellular CD20)
T2 construct: whole, on cells; Endogenous CD20 on Ramos cells (ATCC); also called cellular CD20; huCD20
T2 sequence (looked up): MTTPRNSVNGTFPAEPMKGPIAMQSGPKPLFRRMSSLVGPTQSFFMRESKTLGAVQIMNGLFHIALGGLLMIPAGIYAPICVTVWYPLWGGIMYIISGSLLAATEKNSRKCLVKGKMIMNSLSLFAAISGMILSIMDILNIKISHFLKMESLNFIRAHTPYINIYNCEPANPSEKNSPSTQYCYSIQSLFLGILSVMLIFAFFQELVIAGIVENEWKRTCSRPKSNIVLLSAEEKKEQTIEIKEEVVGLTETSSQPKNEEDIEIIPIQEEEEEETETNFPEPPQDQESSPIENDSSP
Method: FIG. 1C illustrates a graph showing the antigen-binding activity of FN3CD20. Ramos cells were incubated with the indicated concentration (0.5-80 nM) of FITC-FN3CD20 for 1 h at 4° C. Cells were washed and analyzed by flow cytometry. The data are expressed as the mean±standard deviation of three independent experiments. Data were normalized with respect to saturated fluorescence intensity (plateau) observed at the highest target concentrations.

[4] = target: T1, biotinylated human CD20 extracellular …; experiment: SPR (Biacore), biotin-CD20 peptide on a streptavidin chip, 1:1 fit, 25 C; SPR, CD20 peptide (amino acids 165-185)
Method: FN3CD20 protein (0.4, 2, 10, 50, 250, and 750 nM) was diluted in HBS and injected into the chip at a flow rate of 15 μL/min for 1 min at 25° C.
All measurements were performed at 25° C. on a BIAcore 100 instrument and streptavidin chip (GE healthcare Biosciences, PA). The streptavidin chip was first cleaned with three consecutive 1-min. injections of 40 μl, of a solution of 1 M NaCl in 50 mM NaOH before the immobilization procedure. Five minutes after the cleaning process when the sensorgram reached a stable baseline, biotynalated CD20 peptide, diluted in running buffer to 20 μg/mL, was injected for 7 min. using a flow rate of 5 μL/min. The same procedure was performed for immobilization of non-specific CD20 peptide, except that the non-specific CD20 peptide was diluted in running buffer to 200 μg/ml. To attain maximum immobilization level of biotin peptides on the surface of streptavidin, multiple injections were performed.
Target antigen of CD20 peptide was immobilized on a streptavidin chip. FN3CD20 was analyzed in 10 mM HEPES, pH 7.4, 150 mM NaCl, 0.005% Tween 20 at […] concentrations between 0 and 750 nM, and non-specific FN3 was used as control. The flow-rate was 15 μl/min; association and dissociation times were 1 and 2 min, respectively. […] The data were analyzed using BIAeval (BIAcore) software, with a global fitting to the 1:1 binding model. […]

[5] = target: T2, human CD20 antigen on live Ramos cells; experiment: radiotracer binding to Ramos cells

B1: FN3CD20-03 (fibronectin type 3 domain clone selected against the CD20 peptide from the G4 library) (designed binder)
chain: ASVSDVPRDLGVVAATPTSLLISWHSSDVSYYRITYGETGGNSPVQEFTVPYWFTNTTISGLKPGVDYTITVYAATYRDCSSEPISINYRTGSHHHHHH
notes: It was a library clone during selection
- binding result [1]: binds

B2: FN3CD20 clone displayed on the yeast surface (designed binder, not shown: large carriers)
chain: ASVSDVPRDLEVVAATPTSLLISWCRQRCADSYRITYGETGGNSPVQEFTVPGSWKTATISGLKPGVDYTITVYVVTHYYGWDRYSHPISINYRTGSHHHHHH
notes: also called one clone; this clone
- Kd [2]: 0.0143 µM

B3: FN3CD20 (engineered fibronectin type 3 domain binding CD20, soluble, C-terminal His6 tag) (designed binder)
chain: B2 chain
notes: Made in E. coli with a His6 tag; also called FN3 scaffold
- Kd [3]: 0.02 µM
- Kd [4]: 0.022 µM

B5: FN3CD20-01 (fibronectin type 3 domain clone selected against the CD20 peptide from the G4 library) (designed binder)
chain: ASVSDVPRDLEVVAATPTSLLISWHYTCAGSYRITYGETGGNSPVQEFTVPGSWKTATISGLKPGVDYTITVYAVTHYYGWDRYSHPISINYRTGSHHHHHH
notes: as for B1
- binding result [1]: binds

Other lines, results leading:

- binding result [5]: binds
B4: 64Cu-Do-FN3CD20 (64Cu-DOTA-labelled FN3CD20) (designed binder)
chain: B2 chain
modifications: DOTA conjugated to primary amines (1.8 DOTA molecules per FN3 protein), chelating 64Cu
notes: also called 64Cu-FN3CD20; 64Cu-FN3

- binding result [1]: binds
B6: FN3CD20-02 (fibronectin type 3 domain clone selected against the CD20 peptide from the G4 library) (designed binder)
chain: B5 chain with G30D, G52W, S53Y, W54V, K55S, T56N, A74V
notes: as for B1
